This note sets out measurements from paper PMC3820802, “Activin Signaling Targeted by Insulin/dFOXO Regulates Aging and Muscle Proteostasis in Drosophila”.

Data set [1] has as its target T1, Smox MH1 DNA-binding domain (UniProt O96660 1-140).
T1 sequence: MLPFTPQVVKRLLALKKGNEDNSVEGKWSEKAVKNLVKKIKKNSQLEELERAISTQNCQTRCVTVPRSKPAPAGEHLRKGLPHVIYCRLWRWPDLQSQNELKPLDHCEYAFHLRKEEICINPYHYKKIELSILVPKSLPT
Put plainly: EMSA; blocked by unlabeled wild-type probe; 10 mM Tris-HCl pH 7.5, 150 mM KCl, 5 mM MgCl2, 10 ng/uL poly(dI-dC), ~50 ng probe, 20 ug protein in 10 uL, room temperature 20 min; 0.8% agarose, 0.5x TBE. Particulars: protein: recombinant; tags: His6-HaloTag (pFN29K vector; purified with HaloTag kit, tag retention: called Halo-tagged in legend); (only one strand seen in the material). On the technique in general: A gel shift assay detects complexes by their altered migration in electrophoresis.

Data set [2] has as its target T1, Smox MH1 DNA-binding domain. Put plainly: competition; EMSA, cold competitor vs labeled N1; did not compete; 10 mM Tris-HCl pH 7.5, 150 mM KCl, 5 mM MgCl2, 10 ng/uL poly(dI-dC), ~50 ng probe, 20 ug protein in 10 uL, room temperature 20 min; 0.8% agarose, 0.5x TBE. The following applies: protein: recombinant; tags: His6-HaloTag (pFN29K vector; purified with HaloTag kit, tag retention: called Halo-tagged in legend); (only one strand seen in the material).

The target is the same in data set [3]. Put plainly: EMSA; 10 mM Tris-HCl pH 7.5, 150 mM KCl, 5 mM MgCl2, 10 ng/uL poly(dI-dC), ~50 ng probe, 20 ug protein in 10 uL, room temperature 20 min; 0.8% agarose, 0.5x TBE. The following applies: protein: recombinant; tags: His6-HaloTag (pFN29K vector; purified with HaloTag kit, tag retention: called Halo-tagged in legend); label: 3' biotin; (only one strand seen in the material).

B1: Atg8a probe (dsDNA)
DNA 1: CATATTAGACAGACACCATT
DNA 2: AATGGTGTCTGTCTAATATG
For B1, the binding result in data set [1] is listed as “binds”.

B2: Atg8a-Mut3 (dsDNA)
DNA 1: CATATTAGATAGATACCATT
DNA 2: AATGGTATCTATCTAATATG
B2: the binding result in data set [2] is listed as “no binding”.

B3: SBE (vertebrate Smad binding element) (dsDNA)
DNA 1: GTATGTCTAGACTGAA
DNA 2: TTCAGTCTAGACATAC
Turning to B3, in data set [3], the binding result is “binds”.

B4: Atg8a-Mut2 (dsDNA)
DNA 1: CATATTAGCTACATACCATT
DNA 2: AATGGTATGTAGCTAATATG
With B4, the binding result in data set [2] was “no binding”.
